± gives the uncertainty stated by the source.
B1: Membrane-associated guanylate kinase, WW and PDZ domain-containing protein 3, residues 287 to 329; numbered along this chain, Q5TCQ9 (parent)
chain: MRDETLEPLPKNWEMAYTDTGMIYFIDHNTKTTTWLDPRLCKK
B2: Heterogeneous nuclear ribonucleoprotein U-like protein 2, residues 1 to 40; numbered along this chain, Q1KMD3 (parent)
chain: MEVKRLKVTELRSELQRRGLDSRGLKVDLAQRLQEALDAE

Variants of: B1
Test: abundance fitness (aPCA) (normalised: wild type 0, dead -1); higher = more abundant; growth selection in yeast, the domain comes from the species named
Details: Homo sapiens

Row | Variant | abundance fitness
1 | N12C | -0.257 ± 0.14
2 | N12P | -0.383 ± 0.054
3 | N12V | -0.89 ± 0.071
4 | N12G | 0.018 ± 0.032
5 | N12H | -0.185 ± 0.08
6 | N12D | -0.081 ± 0.039
7 | N12T | -0.438 ± 0.073
8 | N12K | -0.155 ± 0.044
9 | N12A | -0.191 ± 0.034
10 | T5A | -0.04 ± 0.042
11 | T5M | 0.251 ± 0.14
12 | T5Q | 0.012 ± 0.058
13 | T5C | -0.123 ± 0.09
14 | T5W | -0.303 ± 0.062
15 | T5F | -0.384 ± 0.16
16 | T5K | 0.072 ± 0.057
17 | T5H | -0.059 ± 0.054
18 | T5G | -0.05 ± 0.028
19 | T5P | -0.023 ± 0.036
20 | T5V | -0.064 ± 0.033
21 | T5E | -0.046 ± 0.037
22 | T5R | -0.064 ± 0.036
23 | T5Y | -0.19 ± 0.056
24 | T5N | 0.125 ± 0.2
25 | T5D | -0.02 ± 0.054

Variants of: B2
Test: as above
Details: Homo sapiens

Row | Variant | abundance fitness
26 | L33G | -0.189 ± 0.048
27 | L33W | -0.626 ± 0.068
28 | L33S | -0.243 ± 0.06
29 | L33K | -0.164 ± 0.092
30 | L33H | -0.467 ± 0.099
31 | L33R | -0.368 ± 0.048
32 | L33D | -0.239 ± 0.071
33 | L33I | -0.843 ± 0.15
34 | L33N | -0.384 ± 0.097
35 | L33P | -0.06 ± 0.064
36 | L33C | -0.403 ± 0.082
37 | L33E | -0.085 ± 0.059
38 | L33M | -0.239 ± 0.063
39 | L33F | -0.733 ± 0.15
40 | L33Q | -0.269 ± 0.074
41 | L33T | -0.349 ± 0.096
42 | Q34D | -0.256 ± 0.074
43 | Q34M | -0.283 ± 0.064
44 | Q34E | -0.099 ± 0.058
45 | Q34F | -0.722 ± 0.09
46 | Q34K | -0.18 ± 0.081
47 | Q34N | -0.119 ± 0.15
48 | Q34R | -0.308 ± 0.051
49 | Q34I | -0.432 ± 0.11

Row | Variant | abundance fitness
50 | Q34Y | -0.515 ± 0.058
51 | Q34P | -0.396 ± 0.066
52 | Q34A | -0.205 ± 0.055
53 | Q34S | -0.171 ± 0.059
54 | Q34L | -0.415 ± 0.055
55 | Q34W | -0.624 ± 0.061
56 | Q34T | -0.145 ± 0.062
57 | Q34C | -0.43 ± 0.081
58 | Q34G | -0.236 ± 0.049
59 | Q34V | -0.413 ± 0.058
60 | E35S | -0.018 ± 0.06
61 | E35P | -0.339 ± 0.059
62 | E35D | 0.036 ± 0.096
63 | E35T | 0.005 ± 0.064
64 | E35I | -0.167 ± 0.065
65 | E35V | -0.045 ± 0.059
66 | E35K | 0.058 ± 0.079
67 | E35M | 0.009 ± 0.08
68 | E35R | -0.047 ± 0.049
69 | E35H | -0.055 ± 0.065
70 | E35C | -0.052 ± 0.064
71 | E35Y | -0.294 ± 0.12
72 | E35L | -0.168 ± 0.054
73 | E35G | -0.068 ± 0.049

Row | Variant | abundance fitness
74 | E35N | -0.036 ± 0.096
75 | E35F | -0.21 ± 0.079
76 | E40R | -0.381 ± 0.056
77 | E40D | -0.122 ± 0.12
78 | E40L | -0.849 ± 0.082
79 | E40I | -0.641 ± 0.1
80 | E40H | -0.545 ± 0.11
81 | E40G | -0.224 ± 0.063
82 | E40T | -0.405 ± 0.22
83 | E40S | -0.311 ± 0.063
84 | E40P | -0.543 ± 0.28
85 | E40C | -0.017 ± 0.41
86 | E40W | -1.14 ± 0.087
87 | E40Y | -0.518 ± 0.22
88 | E40V | -0.529 ± 0.084
89 | E40N | -0.253 ± 0.17
90 | L37C | -0.276 ± 0.097
91 | L37W | -0.266 ± 0.059
92 | L37K | -0.199 ± 0.089
93 | L37T | -0.179 ± 0.054
94 | L37S | -0.346 ± 0.054
95 | L37G | -0.319 ± 0.049
96 | L37Q | -0.113 ± 0.061
97 | L37E | -0.157 ± 0.066

Row | Variant | abundance fitness
98 | L37A | -0.337 ± 0.056
99 | L37N | -0.381 ± 0.083
100 | L37V | -0.078 ± 0.057
101 | L37M | 0.001 ± 0.059
102 | L37I | 0.223 ± 0.14
103 | L37D | -0.24 ± 0.064
104 | L37H | -0.032 ± 0.11
105 | L37R | -0.223 ± 0.048
106 | L37P | -0.282 ± 0.074
107 | L37F | -0.112 ± 0.14
108 | A39W | -0.263 ± 0.061
109 | A39H | -0.026 ± 0.12
110 | A39F | -0.159 ± 0.09
111 | A39V | -0.132 ± 0.059
112 | A39N | 0.153 ± 0.2
113 | A39D | -0.185 ± 0.14
114 | A39G | -0.036 ± 0.049
115 | A39L | -0.118 ± 0.059
116 | A39Q | 0.005 ± 0.11
117 | A39S | -0.06 ± 0.052
118 | A39P | -0.272 ± 0.12
119 | A39Y | -0.367 ± 0.098
120 | A39I | -0.497 ± 0.18
121 | A39K | -0.046 ± 0.079

Row | Variant | abundance fitness
122 | A39R | 0.017 ± 0.049
123 | A39T | -0.088 ± 0.061
124 | R32S | -0.371 ± 0.065
125 | R32P | -0.402 ± 0.087
126 | R32V | -0.643 ± 0.057
127 | R32Q | -0.262 ± 0.08
128 | R32T | -0.405 ± 0.073
129 | R32Y | -0.191 ± 0.33
130 | R32W | -1 ± 0.081
131 | A36V | -0.104 ± 0.053
132 | A36C | -0.048 ± 0.071
133 | A36Q | -0.211 ± 0.06
134 | A36W | -0.422 ± 0.065
135 | A36P | -0.407 ± 0.063
136 | A36N | -0.294 ± 0.1
137 | A36I | -0.314 ± 0.068
138 | A36E | -0.213 ± 0.061
139 | A36F | -0.278 ± 0.12
140 | A36L | -0.622 ± 0.075
141 | A36M | -0.397 ± 0.069
142 | A36S | -0.138 ± 0.055
143 | A36D | -0.371 ± 0.089
144 | A36G | -0.366 ± 0.05
145 | A36T | -0.196 ± 0.072

Row | Variant | abundance fitness
146 | A36R | -0.213 ± 0.049
147 | A36K | -0.354 ± 0.07
148 | A36Y | -0.231 ± 0.094
149 | D38S | -0.19 ± 0.054
150 | D38I | -0.629 ± 0.43
151 | D38L | -0.284 ± 0.061
152 | D38R | -0.217 ± 0.05
153 | D38F | -0.33 ± 0.079
154 | D38A | -0.198 ± 0.057
155 | D38G | -0.281 ± 0.054
156 | D38C | -0.157 ± 0.076
157 | D38N | 0.113 ± 0.17
158 | D38K | -0.185 ± 0.072
159 | D38V | -0.231 ± 0.055
160 | D38Q | -0.244 ± 0.089
161 | D38W | -0.36 ± 0.059
162 | D38T | -0.027 ± 0.063
163 | D38M | -0.169 ± 0.11
164 | D38H | -0.531 ± 0.16
165 | D38Y | -0.243 ± 0.083
166 | D38P | -0.402 ± 0.12
167 | D38E | -0.013 ± 0.059

— the Human Domainome abundance scans (Beltran et al. 2025)
